Measured values taken from patent US20230348614A1 (VISTERRA, published 2023).
Residue numbers refer to the chain shown, from its start.

What was measured:
V110A = molecular target: T1, V110A (Homo sapiens, UniProt P18827); assay: alanine scan: flow cytometry on HEK-293T cells expressing the mutant clone, 4320 Fab 0.50 ug/mL, normalised to WT CD138; Range %WT Binding 2; Normalized 4320 vs. BB4 28.3
T1 construct: clone of the alanine scanning library on HEK-293T cells; m17 with one substitution; also called CD138 V110A
T1 sequence (CD138 (SDC1), full length, point mutant, looked up): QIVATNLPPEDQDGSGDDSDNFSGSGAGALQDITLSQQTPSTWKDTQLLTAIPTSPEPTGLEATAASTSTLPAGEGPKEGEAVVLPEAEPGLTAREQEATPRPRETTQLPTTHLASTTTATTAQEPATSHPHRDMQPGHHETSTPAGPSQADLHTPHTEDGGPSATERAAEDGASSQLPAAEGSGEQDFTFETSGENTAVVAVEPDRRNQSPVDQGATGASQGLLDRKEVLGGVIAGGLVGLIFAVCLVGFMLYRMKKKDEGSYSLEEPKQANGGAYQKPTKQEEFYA
Experimental: (§1) Serial dilutions of each MAb were tested for immunoreactivity against cells expressing target protein (WT) or vector alone. Validation of target expression and optimization of detection and binding of anti-CD138 antibodies both by flow cytometry was completed in replicate (N=4). The optimal screening concentration for each MAb was determined based on the raw signal values and signal-to-background calculations specifically optimized for each test article. Optimized parameters included the use of 10% goat serum as blocking reagent. Primary antibody staining was for 60 minutes at 25° C. Wash buffer include phosphate buffered saline (divalent metal ion free), pH 7.4. […] Secondary antibodies were diluted 1:400 and incubated for 30 minutes at 25° C.
(§2) Library screens of very-high-affinity mAbs can fail to yield critical residues for antibody binding due to deficiencies of such an assay to detect and differentiate critical vs. less critical binding based on affinity and quantification of cell binding. One common approach in the literature is the use of monovalent antibody derived fragments such as Fab usually weakens binding sufficiently to allow identification of critical residues for binding. […] Binding of each test Ab to each mutant clone in the alanine scanning library was determined, in duplicate, and likewise evaluated by flow cytometry.

R155A = molecular target: T2, R155A (Homo sapiens, UniProt P18827); assay: alanine scan: flow cytometry on HEK-293T cells expressing the mutant clone, 4320 Fab 0.50 ug/mL, normalised to WT CD138; Range %WT Binding 6; Normalized 4320 vs. BB4 39.8
T2 construct: clone of the alanine scanning library on HEK-293T cells; m17 with one substitution; also called CD138 R155A
T2 sequence (CD138 (SDC1), full length, point mutant, looked up): T1 sequence (CD138 (SDC1), full length, point mutant, looked up) with A88V, R133A
Experimental: as §1, §2

T143A = molecular target: T3, T143A (Homo sapiens, UniProt P18827); assay: alanine scan: flow cytometry on HEK-293T cells expressing the mutant clone, 4320 Fab 0.50 ug/mL, normalised to WT CD138; Range %WT Binding 6; Normalized 4320 vs. BB4 53.2
T3 construct: clone of the alanine scanning library on HEK-293T cells; m17 with one substitution; also called CD138 T143A
T3 sequence (CD138 (SDC1), full length, point mutant, looked up): T1 sequence (CD138 (SDC1), full length, point mutant, looked up) with A88V, T121A
Experimental: as §1, §2

P112A = molecular target: T4, P112A (Homo sapiens, UniProt P18827); assay: alanine scan: flow cytometry on HEK-293T cells expressing the mutant clone, 4320 Fab 0.50 ug/mL, normalised to WT CD138; Range %WT Binding 9; Normalized 4320 vs. BB4 21.6
T4 construct: clone of the alanine scanning library on HEK-293T cells; m17 with one substitution; also called CD138 P112A
T4 sequence (CD138 (SDC1), full length, point mutant, looked up): T1 sequence (CD138 (SDC1), full length, point mutant, looked up) with A88V, P90A
Experimental: as §1, §2

L114A = molecular target: T5, L114A (Homo sapiens, UniProt P18827); assay: alanine scan: flow cytometry on HEK-293T cells expressing the mutant clone, 4320 Fab 0.50 ug/mL, normalised to WT CD138; Range %WT Binding 15; Normalized 4320 vs. BB4 30.8
T5 construct: clone of the alanine scanning library on HEK-293T cells; m17 with one substitution; also called CD138 L114A
T5 sequence (CD138 (SDC1), full length, point mutant, looked up): T1 sequence (CD138 (SDC1), full length, point mutant, looked up) with A88V, L92A
Experimental: as §1, §2

B1: Fab fragment of mAb 4320 (Fab, V domains shown)
VH: QVQLVQSGAEVKKPGASVKVSCKASGYSFSSYYMHWVRQAPGQGLEWMGTIHPSDSTTNYNQKFQGRVTMTVDTSTRTAYMELSSLRSEDTAVYYCANFVYWGQGTTVTVSS
VL: DIVMTQTPLSLSVTPGQPASISCKSSKSLLYKDGKTYLNWFLQKPGQSPQLLIYVVSTRASGVPDRFSGSGSGTDFTLKISRVEAEDVGVYYCQQLVEYPYTFGQGTKLEIKR
modifications: N-terminal Q1 observed as pyroglutamic acid (PCA) in the 138-2-5 complex
notes: In the crystal structures heavy chain residues 1-213 were traced; also called Fab4320
Mean %WT Binding (V110A): 21.9 %WT
Mean %WT Binding (R155A): 12.3 %WT
Mean %WT Binding (T143A): 30.8 %WT
Mean %WT Binding (P112A): 22.6 %WT
Mean %WT Binding (L114A): 36.2 %WT
